From the supplement of paper PMC12455559

Assay: purified protein yield per well (BCA); higher = higher soluble expression
Method in brief: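 Candidate enzymes were expressed in E. coli C41(DE3) in 2 mL autoinduction cultures with 100 µg/mL kanamycin, at 37 °C for 2 h and then 18 °C for 40 h. Cells were lysed, and protein was bound to Ni-charged magnetic beads and released by SUMO protease cleavage on an OT-2 robot. The read-out is purified protein yield per well, measured with the Pierce Rapid Gold BCA kit. Values below 25 ug (0.1 mg/mL) are below the detection threshold.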

Sequence | purified protein yield per well [µg]
APAESAQRAASPYERGPAPTEQSVSAKLGPFAFTQVPAPANASAGFNQGTVYYPNDTGQGTFGAIAITPGFLSPESSIGWLGPRLASNGFVVITLTTNSPVDFPGGRAAQMRAALDWVTKQAPDAIRSRIDPTRLGVMGWSMGGGGTLEVANTHPNIQAAVPLAPWHLTNNWSTVKVPTMIIGAQNDLIAGVGAHSEPFYESLKSAPERAYAEIKGGNHFSVTVDTPLVGKLATSWMKRFIDDDTRYDQFLCPKPTDSTLSEYRDSCPNG [DP035] | < 25
GFGGGMIYYPTDTSQGTFGGIAISPGYTAQFSVELSWMGPWLASHGFVVIGIETNSPTDFDQARGTQLLAALDYLTQQSPVRTRVDASRLAVAGHSMGGGGALNAAIRRPSLKATVGITPFLPSSNLANDHVPTMLIAGQADTVVSTSSVINQYNSLPATTKSVFLEVAGGDHGFMVGRPNTVMVRTMLPFLKIFVDNDSRYSKFLCPLMDSSGITQYRST [ESM170] | < 25
ADNPYERGPNPTESSIEATRGHYSVSEESVSSLAPGFGGGTIYYPTTRTDGTFGAVAVVPGYTASESSIEWLGARVASQGFVVFTIDTTTRLDQPAQRGDQLLAALDYLTERSDVADRVDPSRLAVMGHSMGGGGTLEAAKDRPSLKAIIPMTPWNLDKTWGDVEVPMLDFGAEYDSIASPASHAKPFYNTHGGEKMYIELNSAGHFAPNSSNTTIAKYSISWLKRWVDNDTRYTQFLCPTPTSWLYIEESASTCGF [TEP142] | < 25
DEVGQAPTAANIVGDGSFATTSSAITGQSGFGGGTVYYPTTAGRYPVVAVAPGFLSDWNSLNWLGSRVASWGFVVVGVNTNSGFDFPPSRGDQLLAALNWAVGSAPVAVRDKVDGTRRGVAGWSMGGGGTLEALAKDTTGTVKAGVPLAPWHSDKTWEQVSEPVFLVGGQNDTVAAPSSHAIPFYNSLGGQKSYLELAGQAHFFPTTSNPTVSRAIVSWFKRFVSSDNRFTPFTCGYTGSAVSNFRSSAC [ESM100] | < 25
RPAPATTAASQSTQRGPDPTVAMIEATRGPFATAQVSVPAGHGFGGGMIYYPTDTSQGTWGALAIVPGYSALFANEEAWMGPWLSSFGFVVIGVETNTRTDSDSQRAAEVLAALDYLTTQSPVRNEVDPARLSVLGHSAGGAGVIEAAEQRPSLRALIGLAPGYPGQGLSMATDQVPALVVGGQADTTVTPSYLANLYGTLPASTQSDFAQIAGADHVYYTHPNNVEMKLIIPWLKLFVDSDSRYEQFLCPSLPDPSTISAYQPKCPYTPPGGSSSSSSSSSSSSASSSSPTTPTTTTSSTPSTSCTATYQTQNSWPGGFQGLVTVTAGPAAISSWTVKWNLSSGQSITQVWSGTLSTSGSAVSVGNASYNGSLAPGASATFGFLADGSPSTPTLSCTGS [ESM120] | < 25
NTNVPSQACNLTNANGCDSIAILNLTINQADTLYTNIITCDNYTWDGTTYTNSGIYNNVYTNSNGCDSILLNLITIPGPFSVSNIDESSGIRNGLDYDGATIYYPDNGNYLSSIVIVPGFMNTELTVQNWGPFLASYGIVTMTIGTNALTDSEFQRRDALIDAIISLKDENNRSLSPLFGRLNTSSISVGGFSKGGGGAQLVASLDSSIKAIVALYPFIDNPIVSDFDHNIPTFIISGQLDVIAPPAQHADIHYDLIPNSTKKLKYELSVGTHDALSGPYGGLNQVGERVLSFLGLFLENDSCYCPLLDITPSLSSRSKSAPLTKSLMILPAATDALRAGSKSTSAKLAEAVA [TEP057] | < 25
DEIGSAPTAATITGNGSFATASTSVSSPSGFRGGQVYYPSTAGTYPVIAVVPGYLSYWSSISWLGPRLASWGFVVVGIETNSIYDQPASRGSQLRAALTWAVNTSPTTVRSRVDANRQGVAGWSMGGGGSLEALKADTSGRIKAAVPMAPWNSDQSWPEVTESVAIVGGQSDSVAPVSSHSIPFYNSLAGPKSYVELAGASHFFPNSDNPSLSRMIVSWFKRWINNDTRFTTFTCGFTGSAISSFRTNAC [ESM178] | 27.5
SPPIVRYDYAPGKYSGNGPYSYSTYQLPGWSPGATVYYPTNASPPFSGIVFCPPYTGTQSNFAAWGPFFASHGIVLVTMDTSSTLISVDQRAIEQRMVLDLLKAERNRPGSPLYNKIDPERVGAMGWSMGGGASWINSAEYPGLKTAMSLAGHHLTAINPNAKGYGTQCPTIIFCGLLDQTILGGMLQSETVYYNIPSGIPKVFYEVSTAGHFVWYSPTAANSHVAELALAFQKTFLDGDTRWEQYIEEPLFD [TEP034] | < 25
